Source: patent publication US20220204621A1 (UCL BUSINESS, published 2022)
Blank lines part the entries; values can stand above or below the binder they belong to.

How the values were obtained:
[1] = target: human ROR1 with the combination of Q(261)H and I(254)V (human, UniProt Q01973 30-937, limits assumed); test: antibody binding to mutated human ROR1 constructs
[2] = target: human Receptor Tyrosine Kinase Like Orphan Receptor 1 (ROR1), full length (human) (UniProt Q01973); test: cell-based or functional assay
Chain of human Receptor Tyrosine Kinase Like Orphan Receptor 1 (ROR1), full length (human) (Q01973 30-937): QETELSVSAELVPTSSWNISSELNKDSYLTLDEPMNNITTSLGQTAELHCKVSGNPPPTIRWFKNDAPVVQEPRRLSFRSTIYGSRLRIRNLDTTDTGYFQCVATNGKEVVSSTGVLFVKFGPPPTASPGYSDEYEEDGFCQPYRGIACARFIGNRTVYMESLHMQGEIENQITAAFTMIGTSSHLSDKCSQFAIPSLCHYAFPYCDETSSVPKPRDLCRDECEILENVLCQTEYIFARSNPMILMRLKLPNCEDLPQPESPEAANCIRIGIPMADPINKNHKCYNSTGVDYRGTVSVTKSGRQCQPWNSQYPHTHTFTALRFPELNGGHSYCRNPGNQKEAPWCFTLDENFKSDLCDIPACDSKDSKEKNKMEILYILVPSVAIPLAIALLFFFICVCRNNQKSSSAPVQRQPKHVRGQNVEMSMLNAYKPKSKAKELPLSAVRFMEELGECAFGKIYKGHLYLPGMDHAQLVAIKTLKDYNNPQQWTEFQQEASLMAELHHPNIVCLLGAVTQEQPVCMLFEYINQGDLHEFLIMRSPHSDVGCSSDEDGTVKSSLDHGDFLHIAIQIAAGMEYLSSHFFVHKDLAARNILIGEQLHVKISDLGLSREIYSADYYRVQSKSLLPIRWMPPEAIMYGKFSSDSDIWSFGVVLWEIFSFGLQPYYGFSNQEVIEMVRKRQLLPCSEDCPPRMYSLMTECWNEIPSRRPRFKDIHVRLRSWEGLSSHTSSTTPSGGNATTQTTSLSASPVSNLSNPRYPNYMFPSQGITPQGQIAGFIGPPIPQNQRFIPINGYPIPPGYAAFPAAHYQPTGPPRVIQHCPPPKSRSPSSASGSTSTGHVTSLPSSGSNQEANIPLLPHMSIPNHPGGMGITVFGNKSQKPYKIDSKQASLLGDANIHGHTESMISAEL

Chain of human ROR1 with the combination of Q(261)H and I(254)V (Q01973 30-937 I254V/Q261H limits assumed): as the sequence (Q01973 30-937) above, with I225V, Q232H counted along it

binding result [1]: no binding
B1: Clone F antibody (antibody, V domains shown)
VH: EVQLVESGGGLVQPGRSLKLSCAASGFIFSEHNMAWVRQAPKKGLEWVATISDDGRNTYYRDSMRGRFTISRENARSTLYLQLDSLRSEDTATYYCASHRYNLFDSWGQGVMVTVSS
VL: DIQMTQSPSFLSASVGDRVTINCKASQNIDRYLNWYQQKLGEAPKRLLYNTNKLQTGIPSRFSGSGSATDFTLTISSLQPEDFATYFCLQYNSLPLTFGSGTKLEIK
notes: Rat anti-ROR1 antibody from a hybridoma library

B2: ROR1xCD3 BiTE (membrane proximal binding ROR1-BiTE specific for the Frizzled domain) (bispecific antibody, part only; not given: OKT3 scFv and linkers, part only)
chain, part: HHHHHHEVQLVESGGGLVQPGRSLKLSCAASGFIFSEHNMAWVRQAPKKGLEWVATISDDGRNTYYRDSMRGRFTISRENARSTLYLQLDSLRSEDTATYYCASHRYNLFDSWGQGVMVTVSSDIQMTQSPSFLSASVGDRVTINCKASQNIDRYLNWYQQKLGEAPKRLLYNTNKLQTGIPSRFSGSGSATDFTLTISSLQPEDFATYFCLQYNSLPLTFGSGTKLEIK
cytotoxicity against neuroblastoma cell lines; lowest concentration named (micrograms/ml) [2]: 0.01
dose dependent cytotoxicity across ROR1 positive pancreatic cell lines (PANC-1, SUIT-2, CFPAC1, HPAF-II, MiaPaCa2, PSN-1); lowest concentration with significant activity [2]: 0.1 ng/mL
